Results reported in the Human Domainome abundance scans (Beltran et al. 2025).
± gives the uncertainty stated by the source.

Assay: abundance fitness (aPCA) (normalised: wild type 0, dead -1); higher = more abundant; growth selection in yeast, the domain comes from the species named
Conditions: Homo sapiens

Row | Substance | abundance fitness
1 | E3 ubiquitin-protein ligase NEDD4-like T209E, Q96PU5 | -0.31 ± 0.078
2 | E3 ubiquitin-protein ligase NEDD4-like T209F, Q96PU5 | -0.325 ± 0.083
3 | E3 ubiquitin-protein ligase NEDD4-like T209G, Q96PU5 | -0.305 ± 0.062
4 | E3 ubiquitin-protein ligase NEDD4-like T209H, Q96PU5 | -0.32 ± 0.11
5 | E3 ubiquitin-protein ligase NEDD4-like T209I, Q96PU5 | -0.036 ± 0.088
6 | E3 ubiquitin-protein ligase NEDD4-like T209L, Q96PU5 | -0.095 ± 0.073
7 | E3 ubiquitin-protein ligase NEDD4-like T209M, Q96PU5 | -0.093 ± 0.1
8 | E3 ubiquitin-protein ligase NEDD4-like T209N, Q96PU5 | -0.095 ± 0.092
9 | E3 ubiquitin-protein ligase NEDD4-like T209P, Q96PU5 | -0.002 ± 0.059
10 | E3 ubiquitin-protein ligase NEDD4-like T209Q, Q96PU5 | -0.21 ± 0.095
11 | E3 ubiquitin-protein ligase NEDD4-like T209R, Q96PU5 | -0.096 ± 0.058
12 | E3 ubiquitin-protein ligase NEDD4-like T209S, Q96PU5 | 0.036 ± 0.073
13 | E3 ubiquitin-protein ligase NEDD4-like T209V, Q96PU5 | -0.079 ± 0.067
14 | E3 ubiquitin-protein ligase NEDD4-like T209Y, Q96PU5 | -0.649 ± 0.11
15 | E3 ubiquitin-protein ligase NEDD4-like T218A, Q96PU5 | -0.045 ± 0.057
16 | E3 ubiquitin-protein ligase NEDD4-like T218C, Q96PU5 | -0.031 ± 0.076
17 | E3 ubiquitin-protein ligase NEDD4-like T218D, Q96PU5 | -0.347 ± 0.096
18 | E3 ubiquitin-protein ligase NEDD4-like T218E, Q96PU5 | -0.122 ± 0.062
19 | E3 ubiquitin-protein ligase NEDD4-like T218F, Q96PU5 | -0.028 ± 0.084
20 | E3 ubiquitin-protein ligase NEDD4-like T218G, Q96PU5 | -0.146 ± 0.061
21 | E3 ubiquitin-protein ligase NEDD4-like T218H, Q96PU5 | -0.017 ± 0.1
22 | E3 ubiquitin-protein ligase NEDD4-like T218I, Q96PU5 | -0.118 ± 0.096
23 | E3 ubiquitin-protein ligase NEDD4-like T218K, Q96PU5 | -0.06 ± 0.072

Row | Substance | abundance fitness
24 | E3 ubiquitin-protein ligase NEDD4-like T218M, Q96PU5 | -0.128 ± 0.089
25 | E3 ubiquitin-protein ligase NEDD4-like T218N, Q96PU5 | -0.244 ± 0.11
26 | E3 ubiquitin-protein ligase NEDD4-like T218Q, Q96PU5 | -0.218 ± 0.095
27 | E3 ubiquitin-protein ligase NEDD4-like T218R, Q96PU5 | -0.184 ± 0.058
28 | E3 ubiquitin-protein ligase NEDD4-like T218S, Q96PU5 | -0.236 ± 0.07
29 | E3 ubiquitin-protein ligase NEDD4-like T218V, Q96PU5 | 0.092 ± 0.056
30 | E3 ubiquitin-protein ligase NEDD4-like T218W, Q96PU5 | -0.084 ± 0.075
31 | E3 ubiquitin-protein ligase NEDD4-like T218Y, Q96PU5 | 0.211 ± 0.1
32 | E3 ubiquitin-protein ligase NEDD4-like T219A, Q96PU5 | -0.28 ± 0.057
33 | E3 ubiquitin-protein ligase NEDD4-like T219C, Q96PU5 | -0.137 ± 0.09
34 | E3 ubiquitin-protein ligase NEDD4-like T219D, Q96PU5 | -0.595 ± 0.085
35 | E3 ubiquitin-protein ligase NEDD4-like T219E, Q96PU5 | -0.145 ± 0.068
36 | E3 ubiquitin-protein ligase NEDD4-like T219F, Q96PU5 | -0.577 ± 0.075
37 | E3 ubiquitin-protein ligase NEDD4-like T219G, Q96PU5 | -0.632 ± 0.055
38 | E3 ubiquitin-protein ligase NEDD4-like T219H, Q96PU5 | -0.232 ± 0.099
39 | E3 ubiquitin-protein ligase NEDD4-like T219I, Q96PU5 | -0.56 ± 0.081
40 | E3 ubiquitin-protein ligase NEDD4-like T219K, Q96PU5 | -0.157 ± 0.099
41 | E3 ubiquitin-protein ligase NEDD4-like T219L, Q96PU5 | -0.623 ± 0.076
42 | E3 ubiquitin-protein ligase NEDD4-like T219M, Q96PU5 | -0.285 ± 0.091
43 | E3 ubiquitin-protein ligase NEDD4-like T219N, Q96PU5 | -0.221 ± 0.067
44 | E3 ubiquitin-protein ligase NEDD4-like T219P, Q96PU5 | -0.38 ± 0.1
45 | E3 ubiquitin-protein ligase NEDD4-like T219R, Q96PU5 | -0.3 ± 0.057
46 | E3 ubiquitin-protein ligase NEDD4-like T219S, Q96PU5 | -0.189 ± 0.086

Row | Substance | abundance fitness
47 | E3 ubiquitin-protein ligase NEDD4-like T219V, Q96PU5 | -0.348 ± 0.063
48 | E3 ubiquitin-protein ligase NEDD4-like T219W, Q96PU5 | -0.598 ± 0.075
49 | E3 ubiquitin-protein ligase NEDD4-like T219Y, Q96PU5 | -0.451 ± 0.089
50 | E3 ubiquitin-protein ligase NEDD4-like V203A, Q96PU5 | 0.023 ± 0.063
51 | E3 ubiquitin-protein ligase NEDD4-like V203C, Q96PU5 | -0.066 ± 0.097
52 | E3 ubiquitin-protein ligase NEDD4-like V203D, Q96PU5 | -0.143 ± 0.073
53 | E3 ubiquitin-protein ligase NEDD4-like V203E, Q96PU5 | -0.033 ± 0.068
54 | E3 ubiquitin-protein ligase NEDD4-like V203F, Q96PU5 | -0.055 ± 0.069
55 | E3 ubiquitin-protein ligase NEDD4-like V203G, Q96PU5 | -0.424 ± 0.053
56 | E3 ubiquitin-protein ligase NEDD4-like V203H, Q96PU5 | 0.016 ± 0.11
57 | E3 ubiquitin-protein ligase NEDD4-like V203I, Q96PU5 | -0.293 ± 0.097
58 | E3 ubiquitin-protein ligase NEDD4-like V203K, Q96PU5 | -0.064 ± 0.078
59 | E3 ubiquitin-protein ligase NEDD4-like V203M, Q96PU5 | -0.096 ± 0.059
60 | E3 ubiquitin-protein ligase NEDD4-like V203P, Q96PU5 | -0.368 ± 0.07
61 | E3 ubiquitin-protein ligase NEDD4-like V203Q, Q96PU5 | 0.019 ± 0.093
62 | E3 ubiquitin-protein ligase NEDD4-like V203R, Q96PU5 | 0.007 ± 0.054
63 | E3 ubiquitin-protein ligase NEDD4-like V203S, Q96PU5 | -0.144 ± 0.066
64 | E3 ubiquitin-protein ligase NEDD4-like V203T, Q96PU5 | -0.115 ± 0.092
65 | E3 ubiquitin-protein ligase NEDD4-like V203W, Q96PU5 | -0.347 ± 0.078
66 | E3 ubiquitin-protein ligase NEDD4-like V203Y, Q96PU5 | -0.227 ± 0.11
67 | E3 ubiquitin-protein ligase NEDD4-like V212A, Q96PU5 | -0.102 ± 0.069
68 | E3 ubiquitin-protein ligase NEDD4-like V212C, Q96PU5 | -0.097 ± 0.076
